Patent publication US20030027314A1
pKd: −log10 of the molar value.

Assays:
c-Jun (unmodified) [1] = experiment: thermal melting curve, mixture (FIG. 4)
[2] = biological target: bHLH MAX (unmodified Max); experiment: homodimer, study of FIG. 9 (method not given)
[3] = biological target: c-Myc bHLH protein (murine) (UniProt P01108); experiment: heterodimer with c-Myc, study of FIG. 9 (method not given)
c-Jun (unmodified) [4] = experiment: from thermal melts, Kd at 37 °C (FIG. 4)
Target sequence in this assay (chain, from a related filing, as listed by the source): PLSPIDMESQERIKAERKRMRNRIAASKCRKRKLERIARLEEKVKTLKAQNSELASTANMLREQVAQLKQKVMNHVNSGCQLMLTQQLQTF

bHLH MAX (unmodified Max), sequence (P61244 22-113): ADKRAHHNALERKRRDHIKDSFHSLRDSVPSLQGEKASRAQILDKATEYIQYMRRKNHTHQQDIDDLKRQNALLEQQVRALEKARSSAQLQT
c-Fos (unmodified), sequence (P01100 other isoform, or with tags, fused parts or gaps limits assumed): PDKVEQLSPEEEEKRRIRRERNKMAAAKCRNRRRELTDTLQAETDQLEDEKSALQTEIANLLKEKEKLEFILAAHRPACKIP

Tm (c-Jun (unmodified) [1]) [°C]	pKd [2]	pKd [3]	pKd (c-Jun (unmodified) [4])	Substance
53				0heptad-Fos (c-Fos with the basic region deleted)
	5.22	7.52		bHLH MAX (unmodified Max)
50			6.70	c-Fos (unmodified) (from UniProt P01100 128-207)
